Test [1] has as its target T1, Alascan LAMP1 transmembrane proteins (hLAMP1_ΔGYQTI mutants) (Homo sapiens, UniProt P11279, D150A).
T1 construct: expressed in transfected cells; host or cells: HEK293 (293-F), transient transfection
T1 sequence (P11279 with tags, fused parts or gaps D150A): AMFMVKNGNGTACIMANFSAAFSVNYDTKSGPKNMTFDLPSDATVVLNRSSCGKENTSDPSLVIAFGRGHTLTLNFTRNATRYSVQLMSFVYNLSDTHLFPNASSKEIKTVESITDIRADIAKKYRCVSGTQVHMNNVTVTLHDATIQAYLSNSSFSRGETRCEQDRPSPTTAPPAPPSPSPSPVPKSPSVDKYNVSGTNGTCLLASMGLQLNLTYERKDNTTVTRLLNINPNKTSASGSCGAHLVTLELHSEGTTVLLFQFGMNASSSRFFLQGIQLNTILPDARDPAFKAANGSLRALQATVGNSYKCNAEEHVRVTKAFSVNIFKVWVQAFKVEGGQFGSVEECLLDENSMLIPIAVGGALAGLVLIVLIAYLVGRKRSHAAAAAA
As to the kind of experiment: Ala scan of LAMP1 transmembrane proteins, flow cytometry. It is filed as binding. The conditions noted are these: pXL6085, D150A in hLAMP1_ΔGYQTI; loss = decrease of more than 50% of the mean fluorescence. An excerpt: (§1) Individual residues identified in example 6.5 and not involved in β-strand structure have been individually replaced by an alanine residue in the LAMP1 sequence derived from hLAMP1_ΔGYQTI and encoded in plasmid pXL5626 (example 6.4). A total of 21 plasmids were engineered from pXL5626 (see Table 19) and used to assay LAMP1 expression at the cell membrane of HEK293 cells after transient transfection. Two days post transfection cells were processed, analyzed by flow cytometry (Guava® easyCyte™ 8HT) as mentioned in example 4.7, and the mean fluorescence was recorded. This fluorescence represents a semi-quantitative assessment of binding. Loss of binding is reported on Table 19 when there is a decrease of more than 50% of the mean fluorescence compared to the control protein encoded from pXL5626.

For test [2], the target named is T2, Alascan LAMP1 transmembrane proteins (hLAMP1_ΔGYQTI mutants) (Homo sapiens, UniProt P11279, R186A).
T2 construct: expressed in transfected cells; host or cells: HEK293 (293-F), transient transfection
T2 sequence (P11279 with tags, fused parts or gaps R186A): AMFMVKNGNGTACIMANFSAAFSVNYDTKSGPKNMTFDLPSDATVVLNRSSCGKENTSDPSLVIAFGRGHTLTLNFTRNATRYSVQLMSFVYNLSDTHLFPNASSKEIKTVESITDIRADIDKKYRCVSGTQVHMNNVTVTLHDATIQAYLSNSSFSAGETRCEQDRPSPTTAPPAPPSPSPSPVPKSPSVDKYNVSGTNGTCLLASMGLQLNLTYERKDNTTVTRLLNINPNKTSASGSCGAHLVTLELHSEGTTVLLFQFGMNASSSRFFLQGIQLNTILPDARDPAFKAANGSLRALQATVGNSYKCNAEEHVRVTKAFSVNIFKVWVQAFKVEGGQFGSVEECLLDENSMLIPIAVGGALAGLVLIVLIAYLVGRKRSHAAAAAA
Described as above. It counts as binding. The conditions noted are these: pXL6081, R186A in hLAMP1_ΔGYQTI; loss = decrease of more than 50% of the mean fluorescence.
Source text: as §1

B1: MAb1: murine monoclonal anti-LAMP1 antibody, VH SEQ ID NO: 1, VL SEQ ID NO: 5 (antibody, V domains shown)
VH: QVQLQQSGAELVKPGASVKMSCKASGYIFTNYNIHWVKKSPGQGLEWIGAIYPGNGDAPYSQKFKDKATLTADKSSSTTYMQLSRLTSEDSAVYYCVRANWDVAFAYWGQGTLVSVSA
VL: DIQMTQSPPSLSASLGGKVTITCKASQDIDRYMAWYQDKPGKGPRLLIHDTSTLQPGIPSRFSGSGSGRDYSFSISNLEPEDIATYYCLQYDNLWTFGGGTKLEIK
modifications: Antibody Fragment; antibody fragment
Take B1: the “Binding to mAb, Alascan” value in test [1] and in test [2] was “Binding loss” throughout.

The values are drawn from patent US9809653B2, “Anti-LAMP1 antibodies and antibody drug conjugates, and uses thereof” (SANOFI, priority 2012, dated 2017).
